Experimental data taken from patent US20130007915A1.

Target: actin filament
Experiment: cell-based or functional assay

Row | Substance | sliding velocity (in vitro sliding filament assay)
1 | Flag-chimera XI protein (chimeric myosin XI: Chara corallina myosin XI motor domain on the A. thaliana MYA2 backbone, FLAG-tagged) | 16.2 µm/sec
2 | wild-type A. thaliana myosin XI-2 (MYA2), expressed from the Flag-MYA2 XI gene (from UniProt Q9LKB9 1-1505) | 7 µm/sec
